Results published in the DeepSol protein solubility set.

Test: soluble on expression in E. coli; label from the status in PepcDB or PDB records

| Sequence | soluble on expression in E. coli |
| --- | --- |
| GSHMPTAIESCMVKFELSSSKWHMTSPKPHCVNTTSDGKLKILQSGTYLIYGQVIPVDKKYIKDNAPFVVQIYKKNDVLQTLMNDFQILPIGGVYELHAGDNIYLKFNSKDHIQKTNTYWGIILMPDLPFIS | soluble |
| MSELSQLSPQPLWDIFAKICSIPHPSYHEEQLAEYIVGWAKEKGFHVERDQVGNILIRQPATAGMENRKPVVLQAHLDMVPQKNNDTVHDFTKDPIQPYIDGEWVKARGTTLGADNGIGMASALAVLADENVVHGPLEVLLTMTEEAGMDGAFGLQSNWLQADILINTDSEEEGEIYMGCAGGIDFTSNLHLDREAVPAGFETFKLTLKGLKGGHSGGEIHVGLGNANKLLVRFLAGHAEELDLRLIDFNGGTLRNAIPREAFATIAVAADKVDALKSLVNTYQEILKNELAEKEKNLALLLDSVANDKAALIAKSRDTFIRLLNATPNGVIRNSDVAKGVVETSLNVGVVTMTDNNVEIHCLIRSLIDSGKDYVVSMLDSLGKLAGAKTEAKGAYPGWQPDANSPVMHLVRETYQRLFNKTPNIQIIHAGLECGLFKKPYPEMDMVSIGPTITGPHSPDEQVHIESVGHYWTLLTELLKEIPAK | not soluble |
| MVYLKGQIRKALSGFYYVYADGETYQTRARGNFRNRKITPLVGDEVLFESDNLTDGYVLEILPRRNELVRPPVANVDLGVVVMSMVSPNFSFNLLDRFLVSLEYKDIEPVIYLTKVDLLDEPQRQQVTEIKQIYEALGYAVIASEDVEATKELERFFPERLTVFMGQSGAGKSTLLNQISPELQLATAEISQSLGRGKHTTRHVELIPLYDGLVADTPGFSAIDFLEMEAVELPKQFPEFVAAASHCKFRECMHHKEPGCEVKRQVEAGTIATSRYENYLQFLMEIENRRPVYKKKS | not soluble |
| MEAQNRIEDHGIIGDMRSAALIADTGSIDFCCWPDFDSPSIFTALLDTPDAGIFQLAPDLPDARRLQIYLPDTNVLQTRWIAEQAVVEVTDLMPIGEDQDDLPRIVRRVQVRFGEATIRMRCRVRMDYSRALEHHHHHH | not soluble |
| MDLPYYHGCLTKRECEALLLKGGVDGNFLIRDSESVPGALCLCVSFKKLVYSYRIFREKHGYYRIETDAHTPRTIFPNLQELVSKYGKPGQGLVVHLSNPIMR | soluble |
| ADTYAATRYPVILVHGLAGTDKFANVVDYWYGIQSDLQSHGAKVYVANLSGFQSDDGPNGRGEQLLAYVKQVLAATGATKVNLIGHSQGGLTSRYVAAVAPQLVASVTTIGTPHRGSEFADFVQDVLKTDPTGLSSTVIAAFVNVFGTLVSSSHNTDQDALAALRTLTTAQTATYNRNFPSAGLGAPGSCQTGAATETVGGSQHLLYSWGGTAIQPTSTVLGVTGATDTSTGTLDVANVTDPSTLALLATGAVMINRASGQNDGLVSRCSSLFGQVISTSYHWNHLDEINQLLGVRGANAEDPVAVIRTHVNRLKLQGV | soluble |
| MGSDKIHHHHHHMTEQNQKQLGNTLWSIADQLRGAMDADDFRDYMLSFLFLRYLSDNYETAAKKELGRDYPDVGGDARKVPLALWYANNVDDIPAFEKQMRRKVHYVIQPAHLWNSIANLARTQNPDLLDTLQAGFKYIETESFESTFQGLFSEIDLSSPKLGKSYSDRNAKLCTIIQKIAEGLAAFSTNIDALGDAYEYLIGQFAAGSGKKAGEFYTPQQISDILSAIVTLDSQEPKTGTKKRLDSVLDFACGSGSLLLNVRKKVNQAGGSIGKIYGQEKNITTYNLARMNMLLHGVKDTEFEIFHGDTLLNEWDMLREQNPARKPSFDAVVANPPFSYRWEPTDALADDVRFKSHGLAPKSAADFAFLLHGFHYLKDEGVMAIILPHGVLFRGGAEERIRTKLLKDGHIDTVIGLPANLFYSTGIPVCILVLKKCKKPDDVLFINAAEHFVKGKRQNHLSDEHIAKIIETYQFRTEEPRYARRVDMAEIEKNDFNLNISRYISTAVDEEEIDLTATHANLVNIEKAIQQATAKHNEFLKELGMPLLP | not soluble |
| MKIVGIYLAAGKSRRTGPGLHKLYLPTGNTLLGNKALHTSLSSNLSDVIVVSNQPSWLLHYTQVERVHILSCEKSCLGQSYSLHCGLEKAESMNADGVVVMLADQPFITVKLLNSLIDSYEHLPQLDYVAASFQGIPQPPILFSKGIFPSLKKLKGDQGARSIFFDKSFQGKITVYSDAKLFYDVNTIEDYNVIKNSLLLEHHHHHH | not soluble |
| MNTYAQESKLRLKTKIGADGRCVIEDNFFTPPFKLMAPFYPKDDLAEIMLLAVSPGMMRGDAQDVQLNIGPNCKLRITSQSFEKIHNTEDGFASRDMHIVVGENAFLDFAPFPLIPFENAHFKGNTTISLRSSSQLLYSEIIVAGRVARNELFKFNRLHTKISILQDEKPIYYDNTILDPKTTDLNNMCMFDGYTHYLNLVLVNCPIELSGVRECIEESEGVDGAVSETASSHLCVKALAKGSEPLLHLREKIARLVTQTTTQKVLEHHHHHH | soluble |
| MLFKRPDTETLYFALVNKDPAYEGVAYVCVTSTKIFCRFTCTARKPKIENCRFRETITECLEAGFRPCKRCKPMLSYGTPDGTVTALLTALENEPARRWREEDVVALGHDPSTVRRSFKRRFGMSFLEIARLRRVGDAAESLASGEAVIGAQIDAGYESGSGFRSAINQLFGTSPAAMKGRGFLKGDWIDTPIGPMLAVADDHALHLLEFADRPALPAELKRLKARTGADMVLGRTAVTGQIAAELAAYFAGRSGSFETRLAGHGTPFERDVWRNLREIPAGEIVSYSSLATAMERPTAVRAVARANGANQLAIVVPCHRVLGADGSLTGYGGGLWRKKWLIEHERRMARGLEHHHHHH | soluble |
| MQLRKMQTVKKEQASLDASSNVDKMMVLNSALTEVSEDSTTGEELLLSEGSVGKNKSSACRRKREFIPDEKKDAMYWEKRRKNNEAAKRSREKRRLNDLVLENKLIALGEENATLKAELLSLKLKFGLISSTAYAQEIQKLSNSTAVYFQDYQTSKSNVSSFVDEHEPSMVSSSCISVIKHSPQSSLSDVSEVSSVEHTQESSVQGSCRSPENKFQIIKQEPMELESYTREPRDDRGSYTASIYQNYMGNSFSGYSHSPPLLQVNRSSSNSPRTSETDDGVVGKSSDGEDEQQVPKGPIHSPVELKHVHATVVKVPEVNSSALPHKLRIKAKAMQIKVEAFDNEFEATQKLSSPIDMTSKRHFELEKHSAPSMVHSSLTPFSVQVTNIQDWSLKSEHWHQKELSGKTQNSFKTGVVEMKDSGYKVSDPENLYLKQGIANLSAEVVSLKRLIATQPISASDSG | soluble |
| MLTVTDYYKELLNFCARTLKDRDAAADLVQEAYTRFLVAQRSGAAIADPRALLFRTTRNLLIDQHRRAEVRMHLSLDTLLEEEQPLAPRHLQPEEVLAFSRYAQALYAAIESLPRRCREAFILNRFDGLSHQEVAEKMGISRNMVAQHIIRGVLVCKACDDRFHGRVVLASKPAE | not soluble |
| MTKFIGCIDLHNGEVKQIVGGTLTSKKEDVPKTNFVSQHPSSYYAKLYKDRDVQGCHVIKLGPNNDDAAREALQESPQFLQVGGGINDTNCLEWLKWASKVIVTSWLFTKEGHFQLKRLERLTELCGKDRIVVDLSCRKTQDGRWIVAMNKWQTLTDLELNADTFRELRKYTNEFLIHAADVEGLCGGIDELLVSKLFEWTKDYDDLKIVYAGGAKSVDDLKLVDELSHGKVDLTFGSSLDIFGGNLVKFEDCCRWNEKQG | soluble |
| MGLWYRMLENQDLEEVITVRVQDPRVQNEGSWNSYVDYKIFLHTNSKAFTAKTSCVRRRYREFVWLRKQLQRNAGLVPVPELPGKSTFFGGSDEFIEKRRQGLQHFLEKVLQSVVLLSDSQLHLFLQSQLSVPEIEACVQGRGAMTVSDAILSYAMSNCGWAQEERQSTSHLAKGDQLNSCCFLPRSGRRSSPSPPLSEEKEQLETWAPVMDSEGPSSESPTLLPSSSLPACWDPARPEEGLSVSQPARRAVAADQAGPMEPTQLDTAWDK | soluble |
| GAMGSMERASLIQKAKLAEQAERYEDMAAFMKGAVEKGEELSCEERNLLSVAYKNVVGGQRAAWRVLSSIEQKSNEEGSEEKGPEVREYREKVETELQGVCDTVLGLLDSHLIKEAGDAESRVFYLKMKGDYYRYLAEVATGDDKKRIIDSARSAYQEAMDISKKEMPPTNPIRLGLALNFSVFHYEIANSPEEAISLAKTTFDEAMADLHTLSEDSYKDSTLIMQLLRDNLTLWTADNAGEEGGEAPQEPQS | soluble |
| MAKYNEKKEKKRIAKERIDILFSLAERVFPYSPELAKRYVELALLVQQKAKVKIPRKWKRRYCKKCHAFLVPGINARVRLRQKRMPHIVVKCLECGHIMRYPYIKEIKKRRKEKMEYGGLVPR | soluble |
| MHLHFTPRQIVEKLDQYIIGQKDAKKAVAVALRNRYRRSKLAENLRDEIAPKNILMIGPTGVGKTEVARRMAKLVGAPFIKVEATKFTEVGYVGRDVESMVRDLVETSVRIVKEEMVVKVQDKAEEQANQRLVEILVPSPEKQSGFKNPLEMLFGGTQNSNQTTDSQEDVEIEKKRQDVERKLAAGLLEDEIVSIEVTEQQSSMFDMLQGTGMEQMGMNFQDALGSFMPKKTKKRKLSVKEARKVLTNEEAQRLIDMDEVTQEAVYRAEQLGIIFIDEIDKIAGKQSNSVDVSREGVQRDILPIVEGSNVATKYGSVKTDYILFVAAGAFHMSKPSDLIPELQGRFPIRVELTKLSTDDFVKILIEPDNALIKQYMALLATEGIEIEFSDEAIRKIAEIAYQVNQDTDNIGARRLHTIMEKLLEDLSFEASEITLEKITITPQYVEEKLATIAKNKDVSQFIL | not soluble |
| MKDKIIDNAITLFSEKGYDGTTLDDIAKSVNIKKASLYYHFDSKKSIYEQSVKCCFDYLNNIIMMNQNKSNYSIDALYQFLFEFIFDIEERYIRMYVQLSNTPEEFSGNIYGQIQDLNQSLSKEIAKFYDESKIKMTKEDFQNLILLFLESWYLKASFSQKFGAVEESKSQFKDEVYSLLNIFLKK | not soluble |
| MKGGAGVPDLPSLDASGVRLAIVASSWHGKICDALLDGARKVAAGCGLDDPTVVRVLGAIEIPVVAQELARNHDAVVALGVVIRGQTPHFDYVCDAVTQGLTRVSLDSSTPIANGVLTTNTEEQALDRAGLPTSAEDKGAQATVAALATALTLRELRAHS | soluble |
| MAHHHHHHMDTNDYENLRFYNYIPVNKELKKSCIPCPDTEDYEAKLNKEFDEELTKVFQGNILDQINAKDINADLKRDLKKKLDILSKKTDKAVVQLIKQKINENKNKENITNTNDDEKEKETMTLNFDKKGDKNFGHVLYKTLDKLDVMDDESD | soluble |
| MSQKLKVVTIGGGSSYTPELLEGFIKRYHELPVSELWLVDVEGGKPKLDIIFDLCQRMIDNAGVPMKLYKTLDRREALKDADFVTTQLRVGQLPARELDERIPLSHGYLGQETNGAGGLFKGLRTIPVIFDIVKDVEELCPNAWVINFTNPAGMVTEAVYRHTGFKRFIGVCNIPIGMKMFIRDVLMLKDSDDLSIDLFGLNHMVFIKDVLINGKSRFAELLDGVASGQLKASSVKNIFDLPFSEGLIRSLNLLPCSYLLYYFKQKEMLAIEMGEYYKGGARAQVVQKVEKQLFELYKNPELKVKPKELEQRGGAYYSDAACEVINAIYNDKQAEHYVNIPHHGQIDNIPADWAVEMTCKLGRDGATPHPRITHFDDKVMGLIHTIKGFEIAASNAALSGEFNDVLLALNLSPLVHSDRDAELLAREMILAHEKWLPNFADCIAELKKAH | soluble |
| MGHHHHHHSHMSEETATSDNDNSYARVRAVVMTRDDSSGGWLPLGGSGLSSVTVFKVPHQEENGCADFFIRGERLRDKMVVLECMLKKDLIYNKVTPTFHHWKIDDKKFGLTFQSPADARAFDRGIRRAIEDISQGCPESK | soluble |
